Experiment [1] deals with FcRn (human) (UniProt P55899). The experiment is described as follows: SPR; pH 6.0. For orientation: Surface plasmon resonance follows binding to a sensor surface in real time, without labels.
For experiment [2], the target named is CD32b(Y163) (UniProt P31994). As to the kind of experiment: SPR.
Chain of CD32b(Y163) (P31994 43-217): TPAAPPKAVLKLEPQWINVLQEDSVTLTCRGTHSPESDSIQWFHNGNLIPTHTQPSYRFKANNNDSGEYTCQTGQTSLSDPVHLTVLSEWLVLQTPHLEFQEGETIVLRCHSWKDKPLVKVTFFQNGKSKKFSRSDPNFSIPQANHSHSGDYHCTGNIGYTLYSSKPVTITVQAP

Chain of FcRn (human) (P55899 24-297): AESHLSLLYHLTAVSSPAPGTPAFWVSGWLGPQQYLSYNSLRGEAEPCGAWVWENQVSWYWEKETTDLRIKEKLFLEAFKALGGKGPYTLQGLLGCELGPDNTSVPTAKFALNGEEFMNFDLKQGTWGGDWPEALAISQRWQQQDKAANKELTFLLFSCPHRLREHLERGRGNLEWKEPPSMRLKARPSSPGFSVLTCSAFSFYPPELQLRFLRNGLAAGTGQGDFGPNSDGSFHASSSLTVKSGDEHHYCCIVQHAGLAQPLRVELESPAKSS

In general, Kd refers to the concentration at which binding is half-saturated. The low end stands for tighter binding, the high end for weaker binding. As for Herceptin WT, the values for the Kd in experiment [1] and in experiment [2] were 3700 nM and 1700 nM, respectively.

Values taken from patent US20150284470A1.
